Experiments:
[1] = molecular target: T1, TIAR (TIAR-b, short isoform) (UniProt Q01085 1-375); assay: UV crosslinking
T1 sequence: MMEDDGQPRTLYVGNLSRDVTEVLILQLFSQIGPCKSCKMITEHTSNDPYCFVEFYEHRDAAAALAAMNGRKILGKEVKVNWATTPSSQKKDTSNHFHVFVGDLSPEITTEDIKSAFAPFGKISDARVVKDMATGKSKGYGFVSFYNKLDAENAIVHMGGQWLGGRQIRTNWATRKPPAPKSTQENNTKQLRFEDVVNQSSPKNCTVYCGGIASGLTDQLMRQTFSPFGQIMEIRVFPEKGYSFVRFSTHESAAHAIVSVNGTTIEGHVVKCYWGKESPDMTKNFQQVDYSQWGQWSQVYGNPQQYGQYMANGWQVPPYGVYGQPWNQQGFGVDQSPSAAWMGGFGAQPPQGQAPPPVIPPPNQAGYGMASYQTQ

[2] = molecular target: T2, TIAR RRM2,3 (UniProt Q01085 94-375); assay: UV crosslinking titration
T2 sequence: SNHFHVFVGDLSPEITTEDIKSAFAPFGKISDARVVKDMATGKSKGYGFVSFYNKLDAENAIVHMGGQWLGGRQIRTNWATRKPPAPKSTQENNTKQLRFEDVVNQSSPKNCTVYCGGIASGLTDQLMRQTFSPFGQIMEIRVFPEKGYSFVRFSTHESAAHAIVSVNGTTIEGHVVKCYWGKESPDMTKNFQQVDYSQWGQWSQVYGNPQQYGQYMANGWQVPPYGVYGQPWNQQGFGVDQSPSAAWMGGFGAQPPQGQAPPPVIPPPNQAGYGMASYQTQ

[3] = molecular target: T3, TIA-1 (UniProt P31483 1-386); assay: UV crosslinking
T3 sequence: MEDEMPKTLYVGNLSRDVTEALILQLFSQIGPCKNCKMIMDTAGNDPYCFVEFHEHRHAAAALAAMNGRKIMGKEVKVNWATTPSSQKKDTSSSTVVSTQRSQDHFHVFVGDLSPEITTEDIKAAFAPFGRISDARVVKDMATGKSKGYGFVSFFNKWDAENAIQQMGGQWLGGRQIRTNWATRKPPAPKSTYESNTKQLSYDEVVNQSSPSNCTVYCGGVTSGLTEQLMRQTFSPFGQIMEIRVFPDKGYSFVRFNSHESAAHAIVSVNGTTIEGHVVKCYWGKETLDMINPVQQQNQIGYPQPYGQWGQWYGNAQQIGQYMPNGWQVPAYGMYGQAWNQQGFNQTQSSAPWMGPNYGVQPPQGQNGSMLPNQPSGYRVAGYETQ

[4] = molecular target: HuR (UniProt Q15717 1-326); assay: UV crosslinking
[5] = molecular target: T1, TIAR (TIAR-b, short isoform); assay: EMSA
[6] = molecular target: T4, TIAR RRM1 (UniProt Q01085 2-93); assay: UV crosslinking titration
T4 sequence: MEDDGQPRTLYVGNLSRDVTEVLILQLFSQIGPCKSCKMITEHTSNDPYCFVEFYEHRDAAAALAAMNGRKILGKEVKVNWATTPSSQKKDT

[7] = molecular target: T1, TIAR (TIAR-b, short isoform); assay: UV crosslinking; remark: listed apart in the source
[8] = molecular target: T1, TIAR (TIAR-b, short isoform); assay: UV crosslinking; remark: listed apart in the source
[9] = molecular target: T1, TIAR (TIAR-b, short isoform); assay: competition
[10] = molecular target: T1, TIAR (TIAR-b, short isoform); assay: UV crosslinking + immunoprecipitation

Sequence of HuR (Q15717 whole entry, canonical isoform): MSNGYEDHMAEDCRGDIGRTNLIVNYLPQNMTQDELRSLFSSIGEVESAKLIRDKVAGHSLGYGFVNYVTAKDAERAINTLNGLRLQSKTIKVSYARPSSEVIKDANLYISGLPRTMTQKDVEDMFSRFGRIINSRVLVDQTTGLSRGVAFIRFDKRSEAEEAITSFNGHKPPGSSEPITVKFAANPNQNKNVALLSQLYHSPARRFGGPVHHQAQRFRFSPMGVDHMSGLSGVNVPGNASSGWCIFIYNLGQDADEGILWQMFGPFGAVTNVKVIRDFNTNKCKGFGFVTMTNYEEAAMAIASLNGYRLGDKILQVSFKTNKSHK

B1: VEGF-AS1b (ssDNA)
DNA: AAAATGCTTTTTTTTTTTTA
binding result [1]: binds

B2: oligo(dT)15 (ssDNA)
DNA: TTTTTTTTTTTTTTT
binding result [1]: binds

B3: VEGF-AS4 (ssDNA)
DNA: TAAAAATAAATATGTACTACGGAATATCTCGAAAAAC
binding result [1]: no binding

B4: IL8-AS1 (ssDNA)
DNA: TTAATATCTAAAATAAAATAAATT
binding result [1]: no binding

B5: VEGF-AS1 (ssDNA)
DNA: AGAATTAAATTCTTTAATACAAAATGCTTTTTTTTTTTTA
Kd [2]: 3 nM | binding result [3]: binds | binding result [4]: no binding

B6: VEGF-AS2 (ssDNA)
DNA: AATAAATAAATGATAACAAATATTAAAATTAAAAAAG
binding result [5]: no binding | binding result [3]: no binding | binding result [4]: no binding | binding result [6]: no binding

B7: rVEGF-AS1 (ssRNA)
RNA: AAAAUGCUUUUUUUUUUUUA
binding result [3]: binds | binding result [6]: no binding

B8: VEGF-S2 (ssDNA)
DNA: CTTTTTTAATTTTAATATTTGTTATCATTTATTTATT
binding result [7]: binds

B9: VEGF-S2/VEGF-AS2 duplex (dsDNA)
DNA 1: B8 DNA
DNA 2: B6 DNA
binding result [8]: no binding

B10: VEGF-AS1b.2 (ssDNA)
DNA: AAAATGCTTTTTTT
binding result [9]: no binding

B11: T7tiar/T7 partial duplex template (mixed)
DNA 1: AAGATGAGAATAGTATTTTTTTTTTTTCGTATTGGAACAATATAAACAATACTATCCCTATAGTGAGTCGTATTA
DNA 2: TAATACGACTCACTATAGGG
binding result [10]: binds

B12: T7tiar full-length transcript (ssRNA)
RNA: GGGAUAGUAUUGUUUAUAUUGUUCCAAUACGAAAAAAAAAAAAUACUAUUCUCAUCUU
binding result [7]: binds

— paper PMC1184220
